Assay results: paper doi:10.1101/2021.07.22.453419
Read-outs that look alike come from different tables or passages of the source. One block for each substance: values may come before it.

Tests used:
[1] = target: Papain (E.C.3.4.22.2, from papaya latex) (papaya) (UniProt P00784)
[2] = target: Papain (E.C.3.4.22.2, from papaya latex) (papaya) (UniProt P00784); remark: listed apart in the source
[3] = target: Papain (E.C.3.4.22.2, from papaya latex) (papaya) (UniProt P00784); remark: listed apart in the source
[4] = target: Papain (E.C.3.4.22.2, from papaya latex) (papaya) (UniProt P00784); remark: listed apart in the source
[5] = target: Papain (E.C.3.4.22.2, from papaya latex) (papaya) (UniProt P00784); assay: enzyme inhibition kinetics
[6] = target: Papain (E.C.3.4.22.2, from papaya latex) (papaya) (UniProt P00784); remark: listed apart in the source
[7] = target: Papain (E.C.3.4.22.2, from papaya latex) (papaya) (UniProt P00784); details: natural protein
[8] = target: Papain (E.C.3.4.22.2, from papaya latex) (papaya) (UniProt P00784); details: natural protein; remark: listed apart in the source
[9] = target: Papain (E.C.3.4.22.2, from papaya latex) (papaya) (UniProt P00784); remark: listed apart in the source
[10] = target: Papain (E.C.3.4.22.2, from papaya latex) (papaya) (UniProt P00784); remark: listed apart in the source
[11] = target: Papain (E.C.3.4.22.2, from papaya latex) (papaya) (UniProt P00784); remark: listed apart in the source
[12] = target: Papain (E.C.3.4.22.2, from papaya latex) (papaya) (UniProt P00784); remark: listed apart in the source
[13] = target: Papain (E.C.3.4.22.2, from papaya latex) (papaya) (UniProt P00784); details: natural protein; remark: listed apart in the source
[14] = target: Papain (E.C.3.4.22.2, from papaya latex) (papaya) (UniProt P00784); remark: listed apart in the source
[15] = target: Papain (E.C.3.4.22.2, from papaya latex) (papaya) (UniProt P00784); remark: listed apart in the source

Sequence of Papain (E.C.3.4.22.2, from papaya latex) (papaya) (P00784 134-345): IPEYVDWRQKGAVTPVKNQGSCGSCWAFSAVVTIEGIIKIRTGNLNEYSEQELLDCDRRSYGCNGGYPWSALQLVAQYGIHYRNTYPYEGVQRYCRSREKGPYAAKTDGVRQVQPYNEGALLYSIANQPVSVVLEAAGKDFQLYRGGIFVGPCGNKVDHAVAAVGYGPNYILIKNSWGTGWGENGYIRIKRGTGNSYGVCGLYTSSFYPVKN

Substance: JcCYS
Ki [1]: 7 nM

Substance: PsCYS
Ki [2]: 4.8 nM

Substance: SlCYS9
Ki [3]: 13.3 nM

Substance: SlCYS8 SE hybrid P-1 (first inhibitory loop of PpCYS)
Ki (papain), fold smaller than that of SlCYS8 [5]: 7 fold

Substance: tomato multicystatin domain SlCYS7 (domain or fragment)
Ki [5]: 2.7 nM

Substance: Physcomitrella patens C-tailed cystatin domain PpCYS (domain or fragment)
Ki [5]: 1.2 nM

Substance: barley cystatin HaCYS3
Ki [8]: 15.4 nM

Substance: TcCYSB
Ki [9]: 5.6 nM

Substance: SlCYS8 SE hybrid P-N1 (N-terminal trunk and first inhibitory loop of PpCYS)
Ki (papain), fold smaller than that of SlCYS8 [5]: 7 fold

Substance: LjCYS
Ki [12]: 13.5 nM

Substance: ZmCYSB
Ki [15]: 4.8 nM

Further lines, results first:

Ki [4]: 7.5 nM
Substance: KsCYS

Ki [6]: 6.4 nM
Substance: EgCYS

Ki [5]: 38.2 nM
Substance: soybean GmCYSB (natural protein)

Ki [7]: 14.4 nM
Substance: cucumber cystatin CsCYS

Ki [10]: 14 nM
Substance: ThCYS

Ki [11]: 5.5 nM
Substance: SiCYS

Ki [13]: 4.3 nM
Substance: Glycine soja GsCYS

Ki [14]: 7.1 nM
Substance: MsCYS
